What was measured:
RhoA [1] = test: RhoA G-LISA of calpeptin treated HeLa cell lysates; format: cell-based; settings: calpeptin 30 minutes
Method: Active Rho protein (typically 7-15 μg total cell lysate or 1-5 ng of constitutively active recombinant protein) were either added directly to the effector bound G-LISA plate (Rac1 and Cdc42 G-LISAs) or diluted with an equal volume of Binding Buffer (20% PEG 8000, Sigma, St. Louis, Mo.) prior to adding to effector bound plates (RhoA G-LISA). The reactions were incubated for 30 minutes at 4° C. on a microtiter titer plate shaker after which wells were washed once with 200 μl of PBST (PBS pH 7.2, 0.05% Tween-20) and immediately treated with 200 μl of Antigen Presenting Buffer (1% trichloroacetic acid (TCA)) for 2-5 minutes at room temperature. Wells were then washed three times with 200 μl each of PBST and primary antibody is added typically at 1 μg/ml (RhoA specific), 0.25 μg/ml (Rac1 specific), 1 μg/ml (Cdc42 specific) and incubated at room temperature for 45 minutes (incubation at 4° C. gave similar results). […] After three washes each of 200 μl PBST the activated Rho proteins are detected using absorbance or luminescence detection as described below. […]
Referring to FIG. 10, 25 μl of serum starved or Calpeptin treated (RhoA activated) Hela cell lysate at concentration of 4, 2, 1, 0.5, 0.25, 0.12, 0.06 mg/ml were mixed with same volume of Binding Buffer and subjected to RhoA G-LISA assay followed by absorbance detection. […] All readings had buffer only background subtracted. […]

RhoA [2] = test: GST-Rhotekin-RBD pull-down assay of calpeptin treated HeLa cell lysates; format: cell-based; settings: calpeptin 30 minutes, 500 μg lysate
Rac1 = Rac1 (Homo sapiens, UniProt P63000); settings: read-out: published affinity Rac1:PAK; cited from earlier work
RhoA (63L) = molecular target: T1, RhoA (63L) (Homo sapiens, UniProt P61586, Q63L); test: G-LISA on effector-GBD plates with constitutively active RhoA; format: binding; settings: 5 ng constitutively active RhoA; detection with the plate's GTPase specific antibody
T1 construct: purchased Cytoskeleton Inc. R6301
Method: (§1) Effector-GBD peptide (ROCK1, POSH or WASP, see Table 2) was diluted in coating buffer (PBS pH 7.2, plus 1 mM EDTA) to a final concentration 0.05 mg/ml and 5 μg of peptide was added to the wells of maleimide plates (Corning Inc., Catalog #2510). Plates were incubated at 21° C. for 2 hours, washed twice in PBS pH 7.2. Plates were blocked for 1 hour at room temperature with milk (typically 0.1-5%, depending upon effector-GBD). After two washes with PBS (pH 7.2), Lyophilization Buffer was added to each well (5% sucrose and 1% dextran) and the plates were lyophilized and stored desiccated at 4° C. […]
(§2) Active Rho protein (typically 7-15 μg total cell lysate or 1-5 ng of constitutively active recombinant protein) were either added directly to the effector bound G-LISA plate (Rac1 and Cdc42 G-LISAs) or diluted with an equal volume of Binding Buffer (20% PEG 8000, Sigma, St. Louis, Mo.) prior to adding to effector bound plates (RhoA G-LISA). […] After three washes each of 200 μl PBST the activated Rho proteins are detected using absorbance or luminescence detection as described below.
Referring to FIG. 2A, lysis buffer only (Blank), 5 ng of RhoA (63L), Cdc42 (61L) or Rac1 (61L) were subjected to a RhoA G-LISA assay as detailed in materials and methods, and RhoA signal was detected by luminometry as described in materials and methods. […]

Rac1 (61L) = molecular target: T2, Rac1 (61L) (Homo sapiens, UniProt P63000, Q61L); test: G-LISA on effector-GBD plates with constitutively active Rac1; format: binding; settings: 5 ng constitutively active Rac1; detection with the plate's GTPase specific antibody
T2 construct: His; purchased Cytoskeleton Inc. R6101
Method: as §1, §2
Referring to FIG. 2B, lysis buffer only (Blank), 5 ng of Rac1 (61L), or RhoA (63L) were subjected to a Rac1 G-LISA assay as detailed in materials and methods (Example 2), and Rac1 signal was detected by absorbance at 490 nm as described in materials and methods (Example 2). […]

Cdc42 (61L) = molecular target: T3, Cdc42 (61L) (Homo sapiens, UniProt P60953, Q61L); test: G-LISA on effector-GBD plates with constitutively active Cdc42; format: binding; settings: 5 ng constitutively active Cdc42; detection with the plate's GTPase specific antibody
T3 construct: His; purchased Cytoskeleton Inc. C6101
Method: as §1, §2
Referring to FIG. 2C, lysis buffer only (Blank), 5 ng of Cdc42 (61L) or Rac1 (61L) were subjected to a Cdc42 G-LISA assay as detailed in materials and methods (Example 2), and Cdc42 signal was detected by absorbance at 490 nm as described in materials and methods (Example 2).

T1 sequence (P61586 whole entry Q63L): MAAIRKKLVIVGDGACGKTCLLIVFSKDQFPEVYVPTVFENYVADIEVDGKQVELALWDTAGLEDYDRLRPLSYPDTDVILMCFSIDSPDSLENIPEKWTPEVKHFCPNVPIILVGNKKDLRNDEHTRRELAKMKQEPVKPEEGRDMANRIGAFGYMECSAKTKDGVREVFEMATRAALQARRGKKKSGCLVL
T3 sequence (P60953 whole entry Q61L): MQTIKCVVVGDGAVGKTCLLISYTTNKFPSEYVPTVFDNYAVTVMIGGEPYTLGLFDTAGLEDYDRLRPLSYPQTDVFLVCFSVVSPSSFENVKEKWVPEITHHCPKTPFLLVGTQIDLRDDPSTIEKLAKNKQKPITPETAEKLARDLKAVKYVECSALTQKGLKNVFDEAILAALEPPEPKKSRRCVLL

CCCC[C@@H](C=O)NC(=O)[C@H](CC(C)C)NC(=O)OCc1ccccc1 [calpeptin]
RhoA fold activation versus serum starved, G-LISA (RhoA [1]; lysate 0.25 mg/ml to 2 mg/ml (6.25-50 μg)): approximately 2 fold
RhoA fold activation versus serum starved, G-LISA (RhoA [1]; lysate 4 mg/ml (100 μg)): 1.7 fold
RhoA fold activation above serum starved lysate, pull-down densitometry (RhoA [2]): approximately 2 fold

B1: PAK-GST: GST-tagged GTPase Binding Domain of human PAK1 (amino acids 68-151), Rac1/Cdc42 effector (protein)
chain: KEKERPEISLPSDFEHTIHVGFDAVTGEFTGMPEQWARLLQTSNITKSEQKKNPQAVLDVLEFYNSKKTSNSQKYMSFTDKSAEC
modifications: left off: a dimerising Fc or GST
Kd (Rac1): ~20 nM

B2: POSH: Histidine-tagged GBD of human POSH (amino acids 291-363) linked to maleimide plate (protein, UniProt Q7Z6J0 1-888, looked up)
E3 ubiquitin-protein ligase …: MDESALLDLLECPVCLERLDASAKVLPCQHTFCKRCLLGIVGSRNELRCPECRTLVGSGVEELPSNILLVRLLDGIKQRPWKPGPGGGSGTNCTNALRSQSSTVANCSSKDLQSSQGGQQPRVQSWSPPVRGIPQLPCAKALYNYEGKEPGDLKFSKGDIIILRRQVDENWYHGEVNGIHGFFPTNFVQIIKPLPQPPPQCKALYDFEVKDKEADKDCLPFAKDDVLTVIRRVDENWAEGMLADKIGIFPISYVEFNSAAKQLIEWDKPPVPGVDAGECSSAAAQSSTAPKHSDTKKNTKKRHSFTSLTMANKSSQASQNRHSMEISPPVLISSSNPTAAARISELSGLSCSAPSQVHISTTGLIVTPPPSSPVTTGPSFTFPSDVPYQAALGTLNPPLPPPPLLAATVLASTPPGATAAAAAAGMGPRPMAGSTDQIAHLRPQTRPSVYVAIYPYTPRKEDELELRKGEMFLVFERCQDGWFKGTSMHTSKIGVFPGNYVAPVTRAVTNASQAKVPMSTAGQTSRGVTMVSPSTAGGPAQKLQGNGVAGSPSVVPAAVVSAAHIQTSPQAKVLLHMTGQMTVNQARNAVRTVAAHNQERPTAAVTPIQVQNAAGLSPASVGLSHHSLASPQPAPLMPGSATHTAAISISRASAPLACAAAAPLTSPSITSASLEAEPSGRIVTVLPGLPTSPDSASSACGNSSATKPDKDSKKEKKGLLKLLSGASTKRKPRVSPPASPTLEVELGSAELPLQGAVGPELPPGGGHGRAGSCPVDGDGPVTTAVAGAALAQDAFHRKASSLDSAVPIAPPPRQACSSLGPVLNESRPVVCERHRVVVSYPPQSEAELELKEGDIVFVHKKREDGWFKGTLQRNGKTGLFPGSFVENI
G-LISA signal above background (buffer only) (RhoA (63L)): barely above background

B3: rhotekin-Cys: synthetic rhotekin-GBD, three internal cysteines replaced, cysteine at carboxy terminal (protein)
chain: ILEDLNMLYIRQMALSLEDTELQRKLDHEIRMRDGAEKLLAALSQREQALEATKSLLVSNSRILSYMGELQRRKEAQVLEKTGRRCS
G-LISA signal above background (buffer only) (RhoA (63L)): 6 fold

B4: WASP: Histidine-tagged GBD of human WASP (amino acids 201-321), carboxy terminal cysteine, linked to maleimide plate (protein)
chain: DIQNPDITSSRYRGLPAPGPSPADKKRSGKKKISKADIGAPSGFKHVSHVGWDPQNGFDVNNLDPDLRSLFSRAGISEAQLTDAETSKLIYDFIEDQGGLEAVRQEMRRQEPLPPPPPPSRC
modifications: left off: small tags and cut ends
notes: Histidine-tagged GBD of human WASP (amino acids 201-321), carboxy terminal cysteine, linked to maleimide plate
G-LISA signal above background (buffer only) (Rac1 (61L)): did not give a signal above background

B5: ROCK1-GBD: Histidine-tagged GBD of human ROCK1 (amino acids 847-1024), carboxy terminal cysteine, linked to maleimide plate (protein)
chain: EAEQYFSTLYKTQVKELKEEIEEKNRENLKKIQELQNEKETLATQLDLAETKAESEQLARGLLEEQYFELTQESKKAASRNRQEITDKDHTVSRLEEANSMLTKDIEILRRENEELTEKMKKAEEEYKLEKEEEISNLKAAFEKNINTERTLKTQAVNKLAEIMNRKDFKIDRKKANTC
modifications: left off: small tags and cut ends
G-LISA signal above background (buffer only) (Rac1 (61L)): did not give a signal above background
G-LISA signal above background (buffer only) (Cdc42 (61L)): did not give a signal above background
